Results taken from the supplement of paper PMC12764529.
± gives the half width of the 95% confidence interval.

How the values were obtained:
[1] = folding stability dG unfold from trypsin proteolysis; higher = more stable
In short: (§1)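 Designed mini-proteins with no cysteine and under 80 residues were kept only if AlphaFold2 dimer inter-PAE was above 15. In a PA-tagged cDNA display construct, they were digested with trypsin and chymotrypsin and then sequenced. K50 was inferred by Bayesian fitting of counts, and unfolding free energy was derived per protease or combined against a sequence-predicted unfolded-state K50 and a shared folded-state K50.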

[2] = folding stability dG unfold from chymotrypsin proteolysis; higher = more stable
In short: as §1

[3] = folding stability dG unfold (combined trypsin and chymotrypsin); higher = more stable
In short: as §1

Row | Sequence | folding stability dG unfold [1] | folding stability dG unfold [2] | folding stability dG unfold [3]
1 | SAGSSTTETFTHPDGSVVTVTEEELPDGSYRVTSVSYEATPDGTVSALLRKPDGTIITVDSLEELFALESAG [r5_618_JUSTAS] | 0.965 ± 0.025 kcal/mol | 1.51 ± 0.076 kcal/mol | 1.34 ± 0.083 kcal/mol
2 | SAGGSAGGSAGGSVYIDPDKGYLVMWNEEDGYIVKYPIDPPNKIPSVDIEPIPPGDPLFSAGGSAGGSAGGS [r4_409_TrROS] | 1.51 ± 0.074 kcal/mol | 1.13 ± 0.07 kcal/mol | 1.26 ± 0.11 kcal/mol
3 | SAGGSASVSDVTTTTVTVTVEVTEDPATGLQRLTATHPDLSFERLVPAGTIPADTTVTLDVTVTTGSAGGSA [r15_190_JUSTAS] | 0.0934 ± 0.028 kcal/mol | 0.452 ± 0.014 kcal/mol | 0.322 ± 0.046 kcal/mol
4 | SMKKVLIVTPNPEINPEEVVKALKEKGFKEIKVFSTPEELKEALPEYDIVIIEENGKLYIKYIPPGKLAKSA [r9_750_TrMRF] | 0.334 ± 0.17 kcal/mol | 1.79 ± 0.12 kcal/mol | 1.35 ± 0.27 kcal/mol
5 | SAGGSAGGSSMPTMTKVGDTWLYYDPSTDIKRPATVTVDDGKITIDGDSGTTVYDGDLVIETSSAGGSAGGS [r12_683_JUSTAS] | 0.389 ± 0.057 kcal/mol | -0.313 ± 0.13 kcal/mol | 0.149 ± 0.1 kcal/mol
6 | SAGGSAGGSAGSLPIPISSESVSSLPESPLSVVTVKLPDGKTVVITVDLNSSSSSVTPLPSAGGSAGGSAGG [r17_369_JUSTAS] | 1.61 ± 0.051 kcal/mol | 1.12 ± 0.032 kcal/mol | 1.37 ± 0.051 kcal/mol
7 | SAGGSFHDLAKELAKKRGLKKVSINMHPEDNSMNINIQNPEKGRPVQGNIPMEDMTPETVLDQIENILESAG [r5_896_TrROS] | -1.04 ± 0.69 kcal/mol | 0.297 ± 0.28 kcal/mol | -0.0716 ± 0.24 kcal/mol
8 | SAGGSARVVILPDGYLLVEVDGKPFLFGPNDEVEIEEEGDELILRLRLRDKDGKEVGEFPFRFRLESAGGSA [r15_424_TrMRF] | 2.71 ± 0.039 kcal/mol | 3.026 ± 0.016 kcal/mol | 2.9 ± 0.055 kcal/mol
9 | SAGGSAGGSAEPGPEELAKALAGELEKRFGKPVKEVKAYEIPGEKRYIVTAKLDDGEFTIIASAGGSAGGSA [r18_145_TrMRF] | -0.267 ± 0.28 kcal/mol | -0.235 ± 0.28 kcal/mol | -0.121 ± 0.38 kcal/mol
10 | SAGGSIPLSDIKDIEIHPWRHPNNNYPMYRIRIDNGRDMVIFPGAIFEFDPDDGKIEEVKPMPFGDSAGGSA [r2_374_TrROS] | 0.165 ± 0.22 kcal/mol | 0.222 ± 0.22 kcal/mol | 0.238 ± 0.14 kcal/mol
11 | SAGGSASMGVSVAAIAEALDAARPAGAPPLVYVKLPNGEVVRVSPDESLTSISPEGEVEIEIRFLPSAGGSA [r15_50_JUSTAS] | 0.907 ± 0.018 kcal/mol | 0.81 ± 0.022 kcal/mol | 0.878 ± 0.04 kcal/mol
12 | SAGGSAGGSAGGGMTTTKTEVSFSPAGGLVTTKSTERLPGTGELKEVTSVTPLASSGTTSAGGSAGGSAGGS [r10_296_JUSTAS] | 0.0156 ± 0.034 kcal/mol | 0.846 ± 0.034 kcal/mol | 0.622 ± 0.081 kcal/mol
13 | SAGGSAWIRINSPEMVEAFAKELKDEGWKLKDVDVQRDPNNGNVWFEIPIEHPNNGKKRELEIWFRSAGGSA [r15_123_TrROS] | 0.368 ± 0.077 kcal/mol | -0.0873 ± 0.2 kcal/mol | 0.141 ± 0.11 kcal/mol
14 | SAGGSAGGGMTPEEARALAEAAGYEDVEVTVLSRDPENNVTVVEVTARAPGGGGAASVGTYTAPSAGGSAGG [r6_699_JUSTAS] | -0.77 ± 0.21 kcal/mol | -0.245 ± 0.27 kcal/mol | -0.396 ± 0.18 kcal/mol
15 | SPPVRARIRVERLPDGSVRVELEVEFPDGVRVRIETLEAPPETGVVRVRARFFPPDGSSVEFEFTFPLLRSA [r9_1179_TrMRF] | 3.74 ± 0.086 kcal/mol | 4.96 ± 0.12 kcal/mol | 4.52 ± 0.11 kcal/mol
16 | SAGGSAGGSKKKIKVIIEVEVNGKKYKIEVEAETEEEAKKKAEEAIKELKKKFPNVKIKKIKPSAGGSAGGS [r12_230_TrROS_Hall] | 2.38 ± 0.13 kcal/mol | 4.08 ± 0.25 kcal/mol | 3.51 ± 0.26 kcal/mol
17 | SANWHRFTIEAWVPVRDPNGKPIRPEQVEEQAERIANELWPRGFPIKDVTVEQHPDGWVRITATIEVPDSAG [r14_470_TrROS] | 2.47 ± 0.08 kcal/mol | 3.137 ± 0.022 kcal/mol | 2.94 ± 0.11 kcal/mol
18 | SAGGSAGGSAGMKKTVTTSTAPDGTLTTTTTVPTPDSTTTVVTTTTDPTTGTTTTTTTANSAGGSAGGSAGG [r11_107_JUSTAS] | -2 ± 0.54 kcal/mol | -0.317 ± 0.095 kcal/mol | -0.711 ± 0.34 kcal/mol
19 | SMTITFKTEEEAKKAAEELLKELEKKLKPGQKIKITVTTEDGKTITIEIEIKPPKKEVEVDEETGELKEKSA [r9_596_TrROS_Hall] | 0.898 ± 0.073 kcal/mol | 2.26 ± 0.081 kcal/mol | 1.97 ± 0.18 kcal/mol
20 | SAGGEIKIKKSKDGKTLYIEIKIKAGEKVKLKLTITLPNGKKAEITSVEIIEKNGELYIKVEIKIKDSAGGS [r16_499_TrROS_Hall] | 3.92 ± 0.28 kcal/mol | 4.67 ± 0.4 kcal/mol | 4.42 ± 0.42 kcal/mol
21 | SAGGVVTFLPGNLIKTTYFDPEKGTRTETLYYVPPDGTTTKLKTTVTPIPPTPLERPFFFGPDDVPVLSAGG [r13_646_JUSTAS] | 0.517 ± 0.059 kcal/mol | 0.306 ± 0.21 kcal/mol | 0.474 ± 0.15 kcal/mol
